Where “and” joins values, the source holds several entries; their conditions need not be identical. Equal entries are not always repeated.
Assays:
[1] = target: multimeric recombinant RBD protein (SARS-CoV-2 S protein residues 331-589 linked to the trimerization region of bacteriophage T4 and six histidines) (SARS-CoV-2 (Wuhan strain) | bacteriophage T4) (UniProt P0DTC2); experiment: cross-linking
[2] = target: multimeric recombinant RBD protein (SARS-CoV-2 S protein residues 331-589 linked to the trimerization region of bacteriophage T4 and six histidines) (SARS-CoV-2 (Wuhan strain) | bacteriophage T4) (UniProt P0DTC2); experiment: SEC; Superdex 200 column (30 x 1 cm) in TBS, 0.4 mL/min; calibrated with BSA (66 and 132 kDa), carbonic anhydrase (30 kDa) and beta-amylase (200 kDa); 135 kDa fractions pooled and re-applied

## multimeric recombinant RBD protein (SARS-CoV-2 S protein residues 331-589 linked to the trimerization region of bacteriophage T4 and six histidines) (from UniProt P0DTC2 331-589)
[1]
  stoichiometry N: 3 and 6
[2]
  stoichiometry N: 3

Reference: article PMC11273545
